{"source": "the RNAGym collection of RNA variant scans (doi:10.1093/molbev/msab373)", "parents": {"B1": {"name": "Azoarcus group I ribozyme (parent)", "chain": "GUGCCUUGCGCCGGGAAACCACGCAAGGGAUGGUGUCAAAUUCGGCGAAACCUAAGCGCCCGCCCGGGCGUAUGGCAACGCCGAGCCAAGCUUCGGCGCCUGCGCCGAUGAAGGUGUAGAGACUAGACGGCACCCACCUAAGGCAAACGCUAUGGUGAAGGCAUAGUCCAGGGAGUGGCGAAAGUCACACAAACCGG"}}, "data": [{"variants_of": "B1", "assay": "reverse-splicing fitness (ratio to wild type); higher = more active; in vitro selection; Mg2+ level not given", "procedure,_shortened": "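An in vitro group I ribozyme library with randomized positions was T7-transcribed and gel-purified. In triplicate, 10 pmol RNA in EPPS pH 7.5 was reacted with 50 pmoles of a 30-nt RNA substrate for 1 h at 37 °C across several added MgCl2 levels (1–48 mM), then stopped with EDTA. Products were reverse transcribed from a substrate-complementary primer, PCR-amplified and sequenced (HiSeq 4000). Fitness is a variant's read proportion after selection over that before, normalised to wild type.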", "values": [{"variant": "C82U A111G A120C A145C C150U C169G", "reverse-splicing fitness": 0.0077}, {"variant": "C82U A111G A120C A145C C150U C169U", "reverse-splicing fitness": 0.00927}, {"variant": "C82U A111G A120G A145C C169G U176C", "reverse-splicing fitness": 0.0158}, {"variant": "C82U A111G A120G A145C C169G U176G", "reverse-splicing fitness": 0.0039}, {"variant": "C82U A111G A120G A145C C169G U176A", "reverse-splicing fitness": 0.0238}, {"variant": "C82U A111G A120G A145C U176A", "reverse-splicing fitness": 0.0105}, {"variant": "C82U A111G A120G A145C U176G", "reverse-splicing fitness": 0.00368}, {"variant": "C82U A111G A120G A145C U176C", "reverse-splicing fitness": 0.00983}, {"variant": "C82U A111G A120C A145C C150U C169G U176A", "reverse-splicing fitness": 0.0173}, {"variant": "C82U A111G A120C A145C C150U C169G U176G", "reverse-splicing fitness": 0.00444}, {"variant": "C82U A111G A120C A145C C150U C169G U176C", "reverse-splicing fitness": 0.00801}, {"variant": "C82U A111G A120C A145U", "reverse-splicing fitness": 0.0519}, {"variant": "C82U A111G A120C A145G", "reverse-splicing fitness": 0.0552}, {"variant": "C82U A111G A120C A145U C150G C169A U176G", "reverse-splicing fitness": 0.00477}, {"variant": "C82U A111G A120C A145U C150G C169A U176C", "reverse-splicing fitness": 0.00798}, {"variant": "C82U A111G A120C A145U C150G C169A U176A", "reverse-splicing fitness": 0.00839}, {"variant": "C82U A111G A120C C150A C169G", "reverse-splicing fitness": 0.0102}, {"variant": "C82U A111G A120C C150A C169A", "reverse-splicing fitness": 0.0107}, {"variant": "C82U A111G A120C C150A C169U", "reverse-splicing fitness": 0.0114}, {"variant": "C82U A111G A120C U176A", "reverse-splicing fitness": 0.0204}, {"variant": "C82U A111G A120C U176C", "reverse-splicing fitness": 0.0288}, {"variant": "C82U A111G A120C U176G", "reverse-splicing fitness": 0.00542}, {"variant": "C82U A111G A120C A145C C150U C169A U176G", "reverse-splicing fitness": 0.00468}, {"variant": "C82U A111G A120C A145C C150U C169A U176C", "reverse-splicing fitness": 0.00487}, {"variant": "C82U A111G A120C A145C C150U C169A U176A", "reverse-splicing fitness": 0.00891}, {"variant": "C82U A111G A120C C150A C169A U176G", "reverse-splicing fitness": 0.0042}, {"variant": "C82U A111G A120C C150A C169A U176C", "reverse-splicing fitness": 0.0156}, {"variant": "C82U A111G A120C C150A C169A U176A", "reverse-splicing fitness": 0.0215}, {"variant": "C82U A111G A120C A145U C150A C169A", "reverse-splicing fitness": 0.00739}, {"variant": "C82U A111G A120C A145U C150A C169U", "reverse-splicing fitness": 0.00709}, {"variant": "C82U A111G A120C A145U C150A C169G", "reverse-splicing fitness": 0.00798}, {"variant": "C82U A111G A120G", "reverse-splicing fitness": 0.0173}, {"variant": "C82U A111G A120G A145G C150A C169G", "reverse-splicing fitness": 0.009}, {"variant": "C82U A111G A120G A145G C150A C169A", "reverse-splicing fitness": 0.00945}, {"variant": "C82U A111G A120G A145G C150A C169U", "reverse-splicing fitness": 0.00914}, {"variant": "C82U A111G A120C A145U C150G C169U U176A", "reverse-splicing fitness": 0.00625}, {"variant": "C82U A111G A120C A145U C150G C169U U176G", "reverse-splicing fitness": 0.00471}, {"variant": "C82U A111G A120C A145U C150G C169U U176C", "reverse-splicing fitness": 0.0124}, {"variant": "C82U A111G A120G A145C C150A C169G U176C", "reverse-splicing fitness": 0.015}, {"variant": "C82U A111G A120G A145C C150A C169G U176A", "reverse-splicing fitness": 0.023}, {"variant": "C82U A111G A120G A145C C150A C169G U176G", "reverse-splicing fitness": 0.00465}, {"variant": "C82U A111G A120C C150G", "reverse-splicing fitness": 0.00825}, {"variant": "C82U A111G A120C C150A", "reverse-splicing fitness": 0.0113}, {"variant": "C82U A111G A120C C150U", "reverse-splicing fitness": 0.0325}, {"variant": "C82U A111G A120C A145G C169A U176C", "reverse-splicing fitness": 0.0205}, {"variant": "C82U A111G A120C A145G C169A U176A", "reverse-splicing fitness": 0.0153}, {"variant": "C82U A111G A120C A145G C169A U176G", "reverse-splicing fitness": 0.00336}, {"variant": "C82U A111G A120C A145G C150A C169A U176G", "reverse-splicing fitness": 0.00589}, {"variant": "C82U A111G A120C A145G C150A C169A U176C", "reverse-splicing fitness": 0.018}, {"variant": "C82U A111G A120C A145G C150A C169A U176A", "reverse-splicing fitness": 0.0157}, {"variant": "C82U A111G A120G A145G C150G U176A", "reverse-splicing fitness": 0.00637}, {"variant": "C82U A111G A120G A145G C150G U176C", "reverse-splicing fitness": 0.00856}, {"variant": "C82U A111G A120G A145G C150G U176G", "reverse-splicing fitness": 0.00546}, {"variant": "C82U A111G A120G A145C C150U C169A U176A", "reverse-splicing fitness": 0.0104}, {"variant": "C82U A111G A120G A145C C150U C169A U176C", "reverse-splicing fitness": 0.00548}, {"variant": "C82U A111G A120G A145C C150U C169A U176G", "reverse-splicing fitness": 0.00395}, {"variant": "C82U A111G A120C C169G", "reverse-splicing fitness": 0.00773}, {"variant": "C82U A111G A120C C169A", "reverse-splicing fitness": 0.00806}, {"variant": "C82U A111G A120C C169U", "reverse-splicing fitness": 0.0118}, {"variant": "C82U A111G A120C A145C C169G U176C", "reverse-splicing fitness": 0.00852}, {"variant": "C82U A111G A120C A145C C169G U176A", "reverse-splicing fitness": 0.0164}, {"variant": "C82U A111G A120C A145C C169G U176G", "reverse-splicing fitness": 0.00381}, {"variant": "C82U A111G A120C C150G C169A U176A", "reverse-splicing fitness": 0.00865}, {"variant": "C82U A111G A120C C150G C169A U176C", "reverse-splicing fitness": 0.0113}, {"variant": "C82U A111G A120C C150G C169A U176G", "reverse-splicing fitness": 0.00578}, {"variant": "C82U A111G A120C C150A C169G U176G", "reverse-splicing fitness": 0.00458}, {"variant": "C82U A111G A120C C150A C169G U176A", "reverse-splicing fitness": 0.0237}, {"variant": "C82U A111G A120C C150A C169G U176C", "reverse-splicing fitness": 0.0191}, {"variant": "C82U A111G A120C C150G C169G U176C", "reverse-splicing fitness": 0.00429}, {"variant": "C82U A111G A120C C150G C169G U176G", "reverse-splicing fitness": 0.00467}, {"variant": "C82U A111G A120C C150G C169G U176A", "reverse-splicing fitness": 0.00718}, {"variant": "C82U A111G A120G A145C C150U", "reverse-splicing fitness": 0.00813}, {"variant": "C82U A111G A120G A145C C150G", "reverse-splicing fitness": 0.00632}, {"variant": "C82U A111G A120G A145C C150A", "reverse-splicing fitness": 0.00658}, {"variant": "C82U A111G A120C C169A U176A", "reverse-splicing fitness": 0.014}, {"variant": "C82U A111G A120C C169A U176C", "reverse-splicing fitness": 0.0132}, {"variant": "C82U A111G A120C C169A U176G", "reverse-splicing fitness": 0.00425}, {"variant": "C82U A111G A120C A145G C150U C169U U176C", "reverse-splicing fitness": 0.0127}, {"variant": "C82U A111G A120C A145G C150U C169U U176A", "reverse-splicing fitness": 0.0147}, {"variant": "C82U A111G A120C A145G C150U C169U U176G", "reverse-splicing fitness": 0.00448}, {"variant": "C82U A111G A120C C150A U176C", "reverse-splicing fitness": 0.0187}, {"variant": "C82U A111G A120C C150A U176A", "reverse-splicing fitness": 0.0127}, {"variant": "C82U A111G A120C C150A U176G", "reverse-splicing fitness": 0.00554}]}]}
